Source: paper PMC8438204 (2021)

B1: HigA2 (protein)
chain: MSNRDLFAELSSALVEAKQHSEGKLTLKTHHVNDVGELNISPDEIVSIREQFNMSRGVFARLLHTSSRTLENWEQGRSVPNGQAVTLLKLVQRHPETLSHIAEL
B2: HigB2 (protein)
chain: MKSVFVESTIFEKYRDEYLSDEEYRLFQAELMLNPKLGDVIQGTGGLRKIRVASKGKGKRGGSRIIYYFLDEKRRFYLLTIYGKNEMSDLNANQRKQLMAFMEAWRNEQS

Experiments:
Assay in all cases: competition
HigB2 = target: B2
HigA2 3-23 peptide 3-23 = HigA2 3-23 peptide 3-23 (Vibrio cholerae, UniProt Q9KMA5)
HigA2 3-33 peptide 3-33 = HigA2 3-33 peptide 3-33 (Vibrio cholerae, UniProt Q9KMA5)

Row | Binder | Kd (HigB2) | Kd (HigA2 3-23 peptide 3-23) | Kd (HigA2 3-33 peptide 3-33)
1 | B1 | 0.016 nM | – | –
2 | B2 | – | 0.003 nM | ~0.127 nM
